In publication PMC10250246 (Nucleic Acids Research, 2023):

T1: Spt6 (239-1451) (S. cerevisiae, UniProt P23615 239-1451)
T1 sequence (looked up): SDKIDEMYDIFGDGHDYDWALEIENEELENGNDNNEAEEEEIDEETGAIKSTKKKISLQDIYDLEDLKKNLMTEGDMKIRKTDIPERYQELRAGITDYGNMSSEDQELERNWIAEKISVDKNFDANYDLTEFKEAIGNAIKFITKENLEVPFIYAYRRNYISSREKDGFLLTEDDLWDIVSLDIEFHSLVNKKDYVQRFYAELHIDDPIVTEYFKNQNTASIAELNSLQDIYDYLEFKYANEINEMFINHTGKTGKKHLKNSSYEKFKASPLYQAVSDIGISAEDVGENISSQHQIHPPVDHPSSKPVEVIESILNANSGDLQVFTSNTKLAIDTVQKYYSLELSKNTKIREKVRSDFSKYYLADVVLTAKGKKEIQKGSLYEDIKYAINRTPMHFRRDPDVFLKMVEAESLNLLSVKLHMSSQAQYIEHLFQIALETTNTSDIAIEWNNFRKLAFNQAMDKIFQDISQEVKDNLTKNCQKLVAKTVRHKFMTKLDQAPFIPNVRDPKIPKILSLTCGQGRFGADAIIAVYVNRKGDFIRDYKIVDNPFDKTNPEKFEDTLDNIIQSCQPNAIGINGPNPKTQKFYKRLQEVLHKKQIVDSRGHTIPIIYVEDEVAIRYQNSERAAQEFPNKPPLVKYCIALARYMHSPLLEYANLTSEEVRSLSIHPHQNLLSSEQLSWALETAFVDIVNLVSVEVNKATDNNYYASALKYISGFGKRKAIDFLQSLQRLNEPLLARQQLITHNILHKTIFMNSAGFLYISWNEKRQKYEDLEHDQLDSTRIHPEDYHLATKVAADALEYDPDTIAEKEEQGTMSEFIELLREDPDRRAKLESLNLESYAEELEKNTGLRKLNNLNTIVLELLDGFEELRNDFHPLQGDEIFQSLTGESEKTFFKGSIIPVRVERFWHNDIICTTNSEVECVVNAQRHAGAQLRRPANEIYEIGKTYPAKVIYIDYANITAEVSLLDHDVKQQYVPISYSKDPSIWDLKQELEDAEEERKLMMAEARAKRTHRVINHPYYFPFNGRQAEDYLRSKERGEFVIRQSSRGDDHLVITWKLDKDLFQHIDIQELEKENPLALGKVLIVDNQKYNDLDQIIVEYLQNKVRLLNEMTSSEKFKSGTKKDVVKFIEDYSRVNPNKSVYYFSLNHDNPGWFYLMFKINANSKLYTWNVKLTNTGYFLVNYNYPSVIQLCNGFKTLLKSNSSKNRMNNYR

T2: 10xHis-mRuby2-Spt6 (239-1451) (S. cerevisiae, UniProt P23615 239-1451)
T2 sequence (looked up): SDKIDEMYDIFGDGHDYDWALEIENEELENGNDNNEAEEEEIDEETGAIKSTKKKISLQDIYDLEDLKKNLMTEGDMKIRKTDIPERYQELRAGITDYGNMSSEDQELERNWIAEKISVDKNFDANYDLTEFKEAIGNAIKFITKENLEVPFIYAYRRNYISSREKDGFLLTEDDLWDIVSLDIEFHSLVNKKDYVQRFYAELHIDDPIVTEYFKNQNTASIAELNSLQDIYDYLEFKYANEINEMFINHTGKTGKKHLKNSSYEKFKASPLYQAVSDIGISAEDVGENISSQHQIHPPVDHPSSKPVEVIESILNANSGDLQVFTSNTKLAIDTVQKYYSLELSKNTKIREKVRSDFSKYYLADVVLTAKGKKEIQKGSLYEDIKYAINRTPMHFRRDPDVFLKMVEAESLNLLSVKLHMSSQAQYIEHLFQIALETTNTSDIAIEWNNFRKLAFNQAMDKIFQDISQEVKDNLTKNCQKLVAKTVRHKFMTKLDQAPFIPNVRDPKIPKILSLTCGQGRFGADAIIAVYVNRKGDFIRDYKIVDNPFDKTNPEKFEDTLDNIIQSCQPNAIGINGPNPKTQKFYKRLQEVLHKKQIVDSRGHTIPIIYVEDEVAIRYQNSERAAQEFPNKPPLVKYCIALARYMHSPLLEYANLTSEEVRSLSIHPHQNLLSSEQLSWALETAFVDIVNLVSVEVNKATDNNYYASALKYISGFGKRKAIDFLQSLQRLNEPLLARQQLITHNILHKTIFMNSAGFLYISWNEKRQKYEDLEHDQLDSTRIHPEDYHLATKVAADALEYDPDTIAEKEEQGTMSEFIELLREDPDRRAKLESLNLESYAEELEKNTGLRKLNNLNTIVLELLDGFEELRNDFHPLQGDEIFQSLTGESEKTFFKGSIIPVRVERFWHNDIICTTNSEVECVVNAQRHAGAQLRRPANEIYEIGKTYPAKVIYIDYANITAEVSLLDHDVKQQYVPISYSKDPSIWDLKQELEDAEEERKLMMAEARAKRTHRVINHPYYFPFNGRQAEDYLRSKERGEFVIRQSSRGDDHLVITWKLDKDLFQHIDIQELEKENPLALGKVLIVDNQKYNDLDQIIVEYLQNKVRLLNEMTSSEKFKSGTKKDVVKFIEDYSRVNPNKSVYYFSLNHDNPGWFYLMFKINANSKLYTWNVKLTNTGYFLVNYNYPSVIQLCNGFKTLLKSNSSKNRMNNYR


Assays:
Spt6 (239-1451) = biological target: T1, Spt6 (239-1451); test: fluorescence polarisation
[1] = biological target: T2, 10xHis-mRuby2-Spt6 (239-1451); test: native gel or EMSA

Row | Binder | Kd (Spt6 (239-1451)) [nM] | Kd [1] [nM] | binding result [1]
1 | 10xHis-mClover-Cdc73 (natural protein, S. cerevisiae, UniProt Q06697 1-393, looked up) MANSLDRLREHLKNGDKLVLKNNEGQSTDDITKATMVETLSSDGSTQDSFPLNEETEIEIDGSLVQLRIIVHCWMNKDSSAADYLADCQNKQLTNVSFLQRTDLINWLSGNTESSQYLKAPGQKGETSDKVDIENKTLAGELSTVKSTTSASLENDSEVSDPVVVETMKHERILVDHNSALRGAKPINFGYLIKDAELKLVQSIKGSLRGSKLPPGHKGAHGRISKTNGSSGGPRKDPIILIPSAASSILTVANIKQFLLESKYVNPRNLPSVPNGLVNIEKNFERISRPIRFIIVDNTRMFTKPEYWDRVVAIFTTGHTWQFNNYQWNSPQELFQRCKGYYFHFAGDSVPQHVQQWNVEKVELDKNKRFKDVEVVRYFWHSLEKELISRGYR | 770 | ~320 | 
2 | 10xHis-mClover-Cdc73 W321A (natural protein, S. cerevisiae, UniProt Q06697 1-393, looked up) MANSLDRLREHLKNGDKLVLKNNEGQSTDDITKATMVETLSSDGSTQDSFPLNEETEIEIDGSLVQLRIIVHCWMNKDSSAADYLADCQNKQLTNVSFLQRTDLINWLSGNTESSQYLKAPGQKGETSDKVDIENKTLAGELSTVKSTTSASLENDSEVSDPVVVETMKHERILVDHNSALRGAKPINFGYLIKDAELKLVQSIKGSLRGSKLPPGHKGAHGRISKTNGSSGGPRKDPIILIPSAASSILTVANIKQFLLESKYVNPRNLPSVPNGLVNIEKNFERISRPIRFIIVDNTRMFTKPEYWDRVVAIFTTGHTAQFNNYQWNSPQELFQRCKGYYFHFAGDSVPQHVQQWNVEKVELDKNKRFKDVEVVRYFWHSLEKELISRGYR |  |  | binds
